System: peptide library, one residue held at a place counted from the Y acceptor
Experiment: relative phosphorylation of the sub-library (ratio to the mean residue at this position); higher = residue favoured
In short: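 Peptide library mixtures, biotinylated and centred on Tyr, each fixed one residue at one position from −5 to +5. Purified recombinant kinases were incubated with them for 90 min in 384-well plates alongside 50 μM ATP and γ-32P-ATP, and the captured, rinsed peptides on streptavidin membranes were measured by phosphorimaging and ImageQuant. Normalization divided each position's intensities by the sum of its 18 randomized residues (16 for the Ser/Thr-free library) and multiplied by that number, so that values give phosphorylation relative to the mean randomized residue.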

SRC, construct: Full length, human (from UniProt P12931)
relative phosphorylation
Conditions	at +1	at +2	at +3	at +4	at +5	at -1	at -2	at -3	at -4	at -5
A fixed	1.71	1.04	0.531	0.882	1.03	0.537	1.09	0.87	1.12	1.01
D fixed	0.651	0.589	0.472	0.783	0.787	0.691	1.57	1.93	1.48	1.36
E fixed	1.43	1.36	0.454	0.876	0.704	0.984	1.82	2.66	1.68	1.23
F fixed	0.696	1.21	3.63	1.19	1.24	0.688	0.649	0.959	1.2	1.03
G fixed	3.59	0.728	0.679	1.29	1.06	0.492	1.2	0.937	1.15	1.16
H fixed	0.667	0.556	0.874	0.983	0.891	0.504	0.917	0.842	0.875	0.871
I fixed	0.83	1.39	2.12	0.89	0.817	4.34	0.76	0.663	0.902	0.826
K fixed	0.229	0.535	0.369	0.982	1.06	0.229	0.522	0.462	0.566	0.758
L fixed	0.605	0.987	1.36	0.876	1.05	1.6	0.878	0.694	0.954	0.899
M fixed	1.09	1.09	0.913	1.19	0.87	0.764	0.657	0.765	0.91	0.901
N fixed	0.456	0.648	0.407	0.737	0.725	0.294	1.17	1.18	0.793	1.09
P fixed	0.274	0.7	0.453	0.931	1.49	1.11	1.26	0.814	1.17	1.21
Q fixed	0.764	0.802	0.416	1.08	0.851	0.378	1.11	1.01	0.941	0.976
R fixed	0.297	0.685	0.637	1.14	1.24	0.213	0.598	0.541	0.673	0.808
S fixed	1.04	1.67	0.626	0.932	1.15	0.385	1.18	0.971	0.797	0.955
T fixed	0.976	1.5	0.709	0.94	0.926	1.28	0.896	0.901	0.692	0.848
V fixed	1.14	1.39	1.5	0.919	0.947	2.86	0.834	0.664	0.784	0.82
W fixed	1.55	1.13	1.84	1.39	1.16	0.651	0.886	1.14	1.31	1.27
pThr fixed	1.52	1.76	0.528	0.686	0.645	2.28	1.83	1.46	1.3	1.37
pTyr fixed	3.88	2.03	0.798	1.32	0.829	1.27	1.55	1.66	1.97	1.46

— the supplement of paper PMC11136658
